Where no end group is shown, it is not given here. [ ]: non-standard residue; d: D form. Formula III = not defined here; Formula II = not defined here; Aib = CC(C)(N)C(=O)O
B1: Compound B10 (peptide)
peptide: YSHGTFTSDYSKYLD[Aib]KSAQEFVKWLEDEPSSGAPPPS-OH
modifications: not fully specified (residue 24); printed as YSHGTFTSDYSKYLD(Aib)KSAQEFVK****WLEDEPSSGAPPPS-OH; also: structure of Formula II substituent not given here

How the values were obtained:
[1] = target: human glucagon receptor (GCGR) (human, UniProt P47871 26-477); experiment: cell-based or functional assay
[2] = target: human GLP-1 receptor (GLP-1R) (human, UniProt P43220 24-463); experiment: cell-based or functional assay
human GLP-1 receptor (GLP-1R), sequence (P43220 24-463): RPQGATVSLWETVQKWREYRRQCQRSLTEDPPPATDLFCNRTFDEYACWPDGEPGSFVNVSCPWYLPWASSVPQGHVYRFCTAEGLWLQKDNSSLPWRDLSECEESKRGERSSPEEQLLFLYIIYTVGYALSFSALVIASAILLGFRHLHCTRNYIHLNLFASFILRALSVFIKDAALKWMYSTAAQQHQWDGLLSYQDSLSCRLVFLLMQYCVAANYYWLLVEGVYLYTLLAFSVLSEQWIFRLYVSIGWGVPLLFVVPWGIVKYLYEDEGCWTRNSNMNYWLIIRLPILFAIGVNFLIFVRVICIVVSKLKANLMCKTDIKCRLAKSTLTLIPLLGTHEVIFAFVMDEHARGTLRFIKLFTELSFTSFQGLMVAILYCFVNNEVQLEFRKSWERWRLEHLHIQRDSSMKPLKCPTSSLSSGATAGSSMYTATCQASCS

Binder | GluR pEC 50 [1] [pEC50] | GLP-1R pEC 50 [2] [pEC50]
YSHGTFTSDYSKYLD[Aib]KYAQEFV[Aib]WLEDEPSSK(Formula III)APPPS-OH (reading uncertain) [Compound B5] | 9.6 | < 6
YSHGTFTSDYSKYLDK(Formula III)KRAQEFVIWLEDEPSSGAPPPS (reading uncertain) [Compound B31] | 10.6 | 7.4
WSQGTFTSDK(Formula III)SKYLD[Aib]KRAQEFV[Aib]WLEDEPSSGAPPPS-OH (reading uncertain) [Compound B24] | 8.2 | 6.8
YSHGTFTSDYSKYLD[Aib]KYAQEFVK(Formula III)WLEDEPSSGAPPPS-OH (reading uncertain) [Compound B6] | 10.1 | < 6
YSHGTFTSDK(Formula II)SKYLD[Aib]KRAQEFVIWLEDEPSSGAPPPS-OH (reading uncertain) [Compound B27] | 11.5 | 6.6
YSHGTFTSDYSKYLD[Aib]KRAQEFVIWLEDEPSSK(Formula II)APPPS-OH (reading uncertain) [Compound B25] | 10.5 | < 6
YSQGTFTSDYSKYLDK(Formula II)ARAQEFVKWLEDEPKSKSPPPS-NH2 (reading uncertain) [Compound B35] | 11.1 | 6.6
YSQGTFTSDYSKYLDAARAQEFVKWLEDEPKSK(Formula II)SPPPS-NH2 (reading uncertain) [Compound B33] | 10.6 | < 6
YSHGTFTSDK(Formula III)SKYLD[Aib]KRAQEFVIWLEDEPSSGAPPPS-OH (reading uncertain) [Compound B32] | 9.4 | 7.8
YSHGTFTSDYSKYLDK(Formula II)KSAQEFV[Aib]WLEDEPSSGAPPPS-OH (reading uncertain) [Compound B11] | 10.3 | 6.3
YSHGTFTSDYSKYLDK(Formula III)KSAQEFV[Aib]WLEDEPSSGAPPPS-OH (reading uncertain) [Compound B15] | 9.9 | < 6
WSQGTFTSDYSKYLDK(Formula II)KRAQEFV[Aib]WLEDEPSSGAPPPS-OH (reading uncertain) [Compound B19] | 10.6 | 6.3
YSQGTFTSDYSKYLDAARAQEFVK(Formula III)WLEDEPKSKSPPPS-NH2 (reading uncertain) [Compound B38] | 9.6 | 6
YSHGTFTSDK(Formula II)SKYLD[Aib]KYAQEFV[Aib]WLEDEPSSGAPPPS-OH (reading uncertain) [Compound B4] | 9.1 | < 6
YSHGTFTSDYSKYLD[Aib]KSAQEFV[Aib]WLEDEPSSK(Formula III)APPPS-OH (reading uncertain) [Compound B13] | 9.2 | < 6
YSHGTFTSDYSKYLDK(Formula III)KYAQEFV[Aib]WLEDEPSSGAPPPS-OH (reading uncertain) [Compound B7] | 8.6 | < 6
YSHGTFTSDYSKYLDK(Formula II)KYAQEFV[Aib]WLEDEPSSGAPPPS-OH (reading uncertain) [Compound B3] | 11.4 | < 6
YSHGTFTSDYSKYLDK(Formula II)KRAQEFVIWLEDEPSSGAPPPS (reading uncertain) [Compound B26] | 11 | < 6

Binder | GluR pEC 50 [1] [pEC50] | GLP-1R pEC 50 [2] [pEC50]
YSHGTFTSDYSKYLD[Aib]KRAQK(Formula III)FVIWLEDEPSSGAPPPS-OH (reading uncertain) [Compound B30] | 9.7 | 7
B1 | 9.9 | < 6
WSQGTFTSDK(Formula II)SKYLD[Aib]KRAQEFV[Aib]WLEDEPSSGAPPPS-OH (reading uncertain) [Compound B20] | 11.1 | 6.5
YSQGTFTSDK(Formula II)SKYLDAARAQEFVKWLEDEPKSKSPPPS-NH2 (reading uncertain) [Compound B36] | 11.5 | 8.1
WSQGTFTSDYSKYLD[Aib]KRAQEFV[Aib]WLEDEPSSK(Formula II)APPPS-OH (reading uncertain) [Compound B17] | 10.5 | < 6
YSQGTFTSDYSKYLDK(Formula III)ARAQEFVKWLEDEPKSKSPPPS-NH2 (reading uncertain) [Compound B39] | 10.9 | 6
YSHGTFTSDYSKYLD[Aib]KRAQEFVIWLEDEPSSK(Formula III)APPPS-OH (reading uncertain) [Compound B29] | 9.8 | 7
YSQGTFTSDYSKYLDAARAQEFVK(Formula II)WLEDEPKSKSPPPS-NH2 (reading uncertain) [Compound B34] | 9.8 | < 6
YSHGTFTSDYSKYLD[Aib]KSAQEFV[Aib]WLEDEPSSK(Formula II)APPPS-OH (reading uncertain) [Compound B9] | 11.1 | < 6
WSQGTFTSDYSKYLD[Aib]KRAQEFVK(Formula II)WLEDEPSSGAPPPS-OH (reading uncertain) [Compound B18] | 10.2 | < 6
YSHGTFTSDK(Formula II)SKYLD[Aib]KSAQEFV[Aib]WLEDEPSSGAPPPS-OH (reading uncertain) [Compound B12] | 11.5 | 7.2
YSQGTFTSDYSKYLDAARAQEFVKWLEDEPKSK(Formula III)SPPPS-NH2 (reading uncertain) [Compound B37] | 10.1 | 6.2
YSHGTFTSDYSKYLD[Aib]KYAQEFVK(Formula II)WLEDEPSSGAPPPS-OH (reading uncertain) [Compound B2] | 11.1 | < 6
YSHGTFTSDK(Formula III)SKYLD[Aib]KYAQEFV[Aib]WLEDEPSSGAPPPS-OH (reading uncertain) [Compound B8] | 10.6 | < 6
YSHGTFTSDK(Formula III)SKYLD[Aib]KSAQEFV[Aib]WLEDEPSSGAPPPS-OH (reading uncertain) [Compound B16] | 8.5 | 8.3
WSQGTFTSDYSKYLDK(Formula III)KRAQEFV[Aib]WLEDEPSSGAPPPS-OH (reading uncertain) [Compound B23] | 9.5 | 6.5
YSHGTFTSDYSKYLD[Aib]KSAQEFVK(Formula III)WLEDEPSSGAPPPS-OH (reading uncertain) [Compound B14] | 9.3 | < 6

Reference: patent US20180009871A1 (INTARCIA THERAPEUTICS, published 2018)
